Patent US8669352 (PANGENETICS B V, dated 2014)
Numbering of substitutions follows the chain as printed. Names may count otherwise. “And” between values parts separate entries of the source, which are not always exact repeats. Equal values may be shown once. One block for each binder: values may come before it.

Columns and labels:
[1] = target: T1, huCD40-muIg (Ancell, catalogue number 504-020) (human, UniProt P25942 21-193); assay: ELISA on coated human CD40-Fc; half-maximal binding concentration
T1 construct: also called CD40-Fc; human CD40-Fc; not shown: murine Ig part
T1 sequence (P25942 21-193): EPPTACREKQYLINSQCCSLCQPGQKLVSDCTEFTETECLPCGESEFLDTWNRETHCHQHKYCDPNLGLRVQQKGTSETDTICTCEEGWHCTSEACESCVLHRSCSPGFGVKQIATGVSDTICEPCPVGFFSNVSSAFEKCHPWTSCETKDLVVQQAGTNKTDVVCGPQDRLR
Method: (§1) Plates were washed 3 times with 200 μL/well wash buffer (0.05% Tween-20 in PBS). Subsequently, plates were blocked with 200 μL/well blocking buffer (5% BSA Fraction V [Roche, catalogue number 735094] in wash buffer) and incubated for 1 h at 37° C. (humid environment). Plates were washed 3 times with wash buffer. Test antibodies (ch5D12 (PG100), PG102, and negative control chimaeric anti-huCD86 antibody chFUN-1) were diluted in the range 0-1200 ng/mL in blocking buffer and transferred to assay plates in a final volume of 100 μL/well, followed by incubation for 1 h at 37° C. (humid environment). Plates were washed 3 times with wash buffer followed by addition of 100 μl/well goat anti-human kappa-AP detection antibody (Southern Biotech Associates catalogue number 2060-0) diluted 1:1000 in blocking buffer. Plates were incubated for 1 h at 37° C. in a humid environment before washing 3 times with wash buffer and a further single wash with PBS.

[2] = target: T2, human CD40 (human, UniProt P25942 21-277); assay: cell-based or functional assay
T2 sequence (P25942 21-277): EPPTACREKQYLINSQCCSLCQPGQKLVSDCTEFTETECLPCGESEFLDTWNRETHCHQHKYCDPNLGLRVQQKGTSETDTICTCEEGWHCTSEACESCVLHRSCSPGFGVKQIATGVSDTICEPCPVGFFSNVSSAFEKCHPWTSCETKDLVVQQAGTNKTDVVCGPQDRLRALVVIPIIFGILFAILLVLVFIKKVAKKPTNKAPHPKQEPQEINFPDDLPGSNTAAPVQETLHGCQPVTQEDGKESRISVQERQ

[3] = target: T3, Recombinant human CD40 extracellular domain fused to human IgG1-Fc domain (huCD40-Fc; R&D Systems 149-CD-50) (human, UniProt P25942 21-193); assay: SPR (Biacore 3000), immobilised huCD40-Fc, Langmuir (1:1) model, ka
T3 construct: extracellular domain; Bought reagent; also called human CD40-Fc; not shown: human IgG1-Fc domain
T3 sequence (P25942 21-193): as the sequence (P25942 21-193) above
Method: (§2) The kinetics of ch5D12 (PG100) and PG102 (I29L variant) binding to human CD40 were compared by surface plasmon resonance at a constant temperature of 25.0° C., using a Biacore 3000 instrument. Recombinant human CD40 extracellular domain fused to human IgG1-Fc domain (huCD40-Fc; R&D Systems catalogue number 149-CD-50) was used as the target antigen in these experiments. HuCD40-Fc (1 µg/mL in 10 mM acetate buffer, pH 5.0) was coupled via the amine groups of Lys residues to carbodiimide-activated Biacore CM5 chips, resulting in an antigen immobilization level of 127.4 RU. For kinetic analyses, dilution series of ch5D12 (PG100) and PG102 (range 10.0 µg/mL to 0.313 µg/mL) were prepared in Biacore Running Buffer (HEPES-buffered saline containing EDTA and surfactant; HBS-EP). Kinetic analyses were performed at a flow rate of 30 µL/min. Samples were allowed to bind for 4 min and to dissociate for 5 min, at the same flow rate. The chip surface was then regenerated for 30 seconds using 30 mM NaOH and a baseline re-established in HBS-EP for 2.5 min before injection of the next sample. […]
(§3) BIAcore control software (Version 3.2) was used for data collection and BIAevaluation software (Version 4.1) was used for analysis of kinetic data. Binding parameters were calculated using two different models of molecular interaction: a bivalent analyte model and Langmuir 1:1 binding model.

[4] = target: T2, human CD40; assay: flow cytometry competition on JY cells against 1 µg/mL PE-labelled ch5D12 (PG100) or PG102; range told of both antibodies
Method: (§4) Competitive Inhibition of ch5D12 (PG100)-PE and PG102-PE Binding to JY Cells Expressing Human CD40 Using Unlabelled Anti-CD40 Antibody Materials and Methods JY cells (Epstein—Barr virus-transformed human B lymphoblastoid cell line) were grown in Iscove's Modified Dulbecco's Medium (IMDM) containing 10% heat-inactivated foetal calf serum (FCS), 2 mM L-glutamine and 50 μg/mL gentamycin in an air-humidified atmosphere containing 5% CO_2, at 37° C. Cells were harvested on the day of flow cytometric measurements.
(§5) Unlabelled ch5D12 (PG100) (Batch 4) and PG102 (Batch 2) antibodies were used in these experiments. Both antibodies were also used in PE-labelled form for direct determination of binding to JY cells by flow cytometry. Antibodies were custom-labelled with PE by AbD Serotec (Oxford, UK). For each FACS analysis the following protocol was used. JY cells were harvested from cell culture and counted. […] Cells were washed followed by flow cytometric analysis in which the MFI at every concentration was determined using a FACScan flow cyometer (Becton & Dickinson). Five thousand events/sample were measured and analyzed using CellQuest® software (Becton & Dickinson).

[5] = target: T3, Recombinant human CD40 extracellular …; assay: SPR (Biacore 3000), immobilised huCD40-Fc, bivalent binding (1:2) model, ka1
Method: as §2, §3

[6] = target: T3, Recombinant human CD40 extracellular …; assay: SPR (Biacore 3000), immobilised huCD40-Fc, bivalent binding (1:2) model
Method: as §2, §3

[7] = target: T3, Recombinant human CD40 extracellular …; assay: SPR (Biacore 3000), immobilised huCD40-Fc, Langmuir (1:1) model, kd
Method: as §2, §3

[8] = target: T2, human CD40; assay: flow cytometry on JY cells; competitor 1 µg/mL ch5D12 (PG100)-PE; n=4
Method: as §4, §5

[9] = target: T3, Recombinant human CD40 extracellular …; assay: SPR (Biacore 3000), immobilised huCD40-Fc, Langmuir (1:1) model
Method: as §2, §3

[10] = target: T3, Recombinant human CD40 extracellular …; assay: SPR (Biacore 3000), immobilised huCD40-Fc, bivalent binding (1:2) model, kd1
Method: as §2, §3

[11] = target: T2, human CD40; assay: flow cytometry on JY cells; competitor 1 µg/mL PG102-PE; n=4
Method: as §4, §5

[12] = target: T2, human CD40; assay: FACS on JY cells expressing CD40; 100 µl PER.C6 transient supernatant harvested after 48 h (antibody concentration not equalised), FITC anti-human IgG 1/100; in the same figure Mock Control Mean 11.25 / Median 8.74, FACS control (secondary only) Mean 10.18 / Median 8.74
Method: FIG. 8. FACS analysis using JY cells. PER.C6 cell supernatant of the transient expressed variants (Q5E, K13A, E16Q, T17S, I29L, 37V, P45L, M48L, STS60NSA, T68S, S79F, and T108S) of 5D12 was harvested after 48 h. As control also supernatant was harvested of cells transfected with either ch5D12 or D15D12 together with supernatant from mock (no plasmid) transfected cells. Binding of expressed antibodies was tested by FACS using JY cells together with anti-human FITC labelled secondary antibody (1/100 diluted). As FACS control JY cells were incubated with only the secondary FITC labelled antibody.
By FACS analysis the antigen specificity of the expressed antibodies was analyzed. JY cells are EBV transformed human B-cells, which express CD40. Briefly, 100,000 JY cells were incubated with 100 µl supernatant from the transient expression experiment at 4° C. for 20 minutes. To remove unbound antibody cells were washed with PBS containing 0.05% NaAzide and 1% BSA. As secondary antibody 1/100 diluted FITC labeled anti-human IgG (Jackson 109-095-127) was used. After 20 minutes incubation at 4° C. cells were washed. Finally cell samples were measured on a FACScan (BD).

[13] = target: T1, huCD40-muIg (Ancell, catalogue number …); assay: ELISA on coated human CD40-Fc (huCD40-muIg per methods); n=4
Method: as §1, with “Plates were incubated for 1 h at 37° C. in a humid environment before washing 3 times with wash buffer and a further single wash with PBS.” left out
PNP substrate was prepared by adding 1 tablet p-Nitrophenyl Phosphate tablets (Sigma, catalogue number N-2765) in 15 mL PNP substrate buffer (12.1 g Tris, 5.84 g NaCl, 1.02 g MgCl_2.6H_2O in 1 L H_2O (adjusted to pH 9.6 with HCl). PNP substrate was added to assay plates at 100 μL/well. Plates were incubated for several minutes (max 30 min) at 37° C. to allow colour development before the reaction was stopped by addition of 3M NaOH. Colour intensity was determined at 405 nm using a micro plate reader (Biorad, model 550).

[14] = target: T3, Recombinant human CD40 extracellular …; assay: SPR (Biacore 3000), immobilised huCD40-Fc, bivalent analyte model; the text value differs from the table's 5.29 × 10^-9 M; bivalent analyte model, not Langmuir
Method: as §2, §3

EC50 [1]: ~0.03 µg/mL
-log IC50 for inhibition of IL-8 release by IFN-gamma-pulsed THP-1 cells co-cultured with Jurkat 39.8/50 cells [2]: 8.42 -log10 (unit not printed)
kon [3]: 2.51e+06 M⁻¹ s⁻¹
kon [5]: 782000 M⁻¹ s⁻¹
Kd [6]: 5.41 nM
koff [7]: 0.000596 s⁻¹
-log IC50 [8]: 7.63 -log10 of g/mL (per p-0205: ~20-30 ng/mL)
Kd [9]: 0.237 nM
koff [10]: 0.00247 s⁻¹
-log IC50 [11]: 7.65 -log10 of g/mL (per p-0205: ~20-30 ng/mL)
Mean (FL1-H) [12]: 108 FL1-H
Median (FL1-H) [12]: 91.8 FL1-H
B1: PG102 (I29L variant) (antibody, human IgG4, kappa, V domains shown)
VH: QVKLQESGPGLVKPSETLSITCTVSGFSLSRYSVYWIRQPPGKGPEWMGMMWGGGSTDYSTSLKSRLTISKDTSKSQVSLKMNSLRTDDTAMYYCVRTDGDYWGQGTTVTVSS
VL: ELQLTQSPLSLPVTLGQPASISCRSSQSLANSNGNTYLHWYLQRPGQSPRLLIYKVSNRFSGVPDRFSGSGSGTDFTLKISRVEAEDVGVYYCSQSTHVPWTFGGGTKLEIKR
notes: Human IgG4/kappa; also called 29L-37I
IC50 [4]: 0.02 µg/mL to 0.03 µg/mL (2×) and 0.13 nM to 0.2 nM (2×)

EC50 [1]: ~0.03 µg/mL
-log IC50 for inhibition of IL-8 release by IFN-gamma-pulsed THP-1 cells co-cultured with Jurkat 39.8/50 cells [2]: 8.28 -log10 (unit not printed)
kon [3]: 1.88e+06 M⁻¹ s⁻¹
kon [5]: 641000 M⁻¹ s⁻¹
-log half-maximal binding concentration [13]: 7.54 -log10 of g/ml (per caption: 7.45 ~ 35 ng/ml)
Kd [6]: 5.29 nM
koff [7]: 0.000507 s⁻¹
-log IC50 [8]: 7.5 -log10 of g/mL (per p-0205: ~20-30 ng/mL)
Kd [14]: 5.25 nM
Kd [9]: 0.271 nM
koff [10]: 0.0016 s⁻¹
-log IC50 [11]: 7.54 -log10 of g/mL (per p-0205: ~20-30 ng/mL)
B2: ch5D12 (PG100) (antibody, V domains shown)
VH: QVKLEESGPGLVAPSQSLSITCTVSGFSLSRYSVYWVRQPPGKGLEWLGMMWGGGSTDYNSALKSRLSISKDTSKSQVFLKMNSLRTDDTAMYYCVRTDGDYWGQGTSVTVSS
VL: B1 VL with T14S, Q17D, P18Q, A30V, R44K, R50K, V88L, Y92F
notes: also called chimeric 5D12
IC50 [4]: 0.02 µg/mL to 0.03 µg/mL (2×) and 0.13 nM to 0.2 nM (2×)
